Data published in the domain aggregation screens of Martell et al. (2025).

Assay: soluble fraction after stress (log2 fold change); higher = more stays soluble; pooled small domains, quantitative proteomics
Settings: stress: 50 degC
Method in brief: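 After stress at 50°C, the amount of each protein still soluble was measured. This was done on pooled custom libraries of small protein domains, using high-throughput quantitative proteomics. The figure given is a base-two log fold change and stands for aggregation propensity, with higher values meaning more protein stays in solution.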
In the case of “HMSMLSQERQSLILDIIKEQGSVTVTRLTEILQSSESTVRRDLSYLASKGKINKVHGGATALG”, the “soluble fraction (log2)” value is reported as -0.206.
In the case of “HMSMNGNMIHATVIWKGRYFLVKMFFPQLTKPKRAEVQAQIEKAYPGSRVASYHITDYKPGEQFLHV”, the “soluble fraction (log2)” value is reported as -1.51.
In the case of “HMSMPEVLSDRELEIFRMIGTGMSTGDIAKKLNISVNTIESHRKKIKDKLGIQKGSELVKAAVQWVSTQQ”, the “soluble fraction (log2)” value is reported as -0.262.
With “HMSMSVLFSELDQKDAGVIVEKLKERKIPYELQSGGSAIMVPANVLHETRLQLAAEGLPQSS” the “soluble fraction (log2)” value was 0.0439.
For “HMSMTVHGALRLLQLPTIADRPYTLKEIREAYREQAQNHHPDAGGSADAMRRLNEAYQFLKERYRQA”, the “soluble fraction (log2)” value was -0.16.
For “HMSNEKVVKFAQELLVDEERSAISPALISAKIDQVLMFKPAWNEGLDRDAVVNELVRRFSIW”, the “soluble fraction (log2)” value was -0.841.
In the case of “HMSNGFFELKTSQQDELIDLIDSHTNFVRTKIEGELITAFLKLPMDAEEFNKLLFTNGIILSHLVKRK”, the “soluble fraction (log2)” value is reported as -0.461.
For “HMSNIIGNTAYSAIPDKQYFRLKSETAEKVANYLTENNIPFSGRINGDKTTLTIGQKNVDDYKAAVATVTG”, the “soluble fraction (log2)” value was 0.0593.
With “HMSNIVNYEVYVYQNDAWDLLARYPSEKRAEAIEYAKSTEFSLNRPTKVIRETYDLDTQKFQEALIYLSE” the “soluble fraction (log2)” value was -0.239.
For “HMSNLNHSFQYKKNIGRKISLTYLGRDNESISKIYELIDSNDSGILVKNKNVEIFIHYEKIVSAKIKVS”, the “soluble fraction (log2)” value was -0.943.
In the case of “HMSNLTDLVSAKEAEVYLHFLESGSTAGMTEAELRAVRKIEELIQSNKIDYNGILRIRNETVK”, the “soluble fraction (log2)” value is reported as 0.139.
For “HMSNNLAYSQFLDRVKNKEIRKVEIRGQSIVGYTSNNETFKTYAPLNDPKMYDELLTNDVQVQVDPP”, the “soluble fraction (log2)” value was 0.0519.
For “HMSNQLAVPDVTNMKANAAADRLRQQGLRVELKTESSNTVPRGMAIRTDPAASTMVARGGRVTLIISSGKG”, the “soluble fraction (log2)” value was -0.000921.
In the case of “HMSNSGFVKNNGKTEFYDASGRQAKSSWINISGKWYYFDLNGTMVTGWQRISNKWYYFLEDGSK”, the “soluble fraction (log2)” value is reported as 0.0383.
For “HMSNSMISKDKAMSIALAKVSGATSSNIYIELEKDDGRYTYEGEINFNNKEYEFEIDAYTGNILKWEVDSI”, the “soluble fraction (log2)” value was -0.333.
In the case of “HMSNTPHSREVLLEMDAVRRLLAVGEEKGEVDRADLQGAFEEAELGRGDLDGVLSILREYDVPLAR”, the “soluble fraction (log2)” value is reported as 0.0709.
In the case of “HMSNVIYFNYNDYKFLFMGDAGVDKETDILEKYTLSNIDFLKVGHHGSDTSSNKGFIDSIQPKYSLIS”, the “soluble fraction (log2)” value is reported as -1.07.
For “HMSNWTILIIQGSAHLIDLDSKITEIDGFGSFPTKILQDYNLNEEFEIFDTNVKMVNSVQSDLQSN”, the “soluble fraction (log2)” value was -2.56.
For “HMSNYIVELSSSEKIDDIDNNNNLINSFFSKSDSQWEYKLVFKNKNEMDVFVKKISTNNKIISYKTSS”, the “soluble fraction (log2)” value was 0.149.
For “HMSPAETGIYHILVENGKPNRHGLDATNKNENWLRQFLITQNTRLEDVFLLLADDGGGIRFFKSQ”, the “soluble fraction (log2)” value was -0.498.
With “HMSPAPVSVDHLAFPTRDLEATDHFYSKVVGATLVHAESGYSPSWKSDYLLITYALPDGTRLSFFDWP” the “soluble fraction (log2)” value was 0.0261.
In the case of “HMSPDTREAILAAARTAFARDGYQTSLRGIARDAGVDPALVHHYFPDRATLFAKAVIESTAG”, the “soluble fraction (log2)” value is reported as -0.00189.
In the case of “HMSPFAHHLHELRMRHGIRQNELAELIGYDQTYISALEVGLKGPPTPEFVDKLVEGLALSRTEEAALRSAA”, the “soluble fraction (log2)” value is reported as -0.482.
In the case of “HMSPFYALDEVDSFLDGVNVERLAALIARQAEQAQFLVVSHRRPMIGASTRTIGVTQARGAHTQVVGLP”, the “soluble fraction (log2)” value is reported as -0.25.
With “HMSPGAKIEVTGNTVNLRAGPGTNYDTRGQVKKGEQLPLLGEQGGWYRVQTSRGVAYLAGWLARVLT” the “soluble fraction (log2)” value was 0.0409.
With “HMSPLDSHLGRRIALRRQQLNTSAADLEKAISMVPGSVARFEAGRQSLNATQLFTLSRALDVPVLYFFEG” the “soluble fraction (log2)” value was -0.534.
For “HMSPREDQQSRKQHILEAAAVLFAERGYYKTTTADVARAVGVTQPYVFHFFKSKEELYLAVL”, the “soluble fraction (log2)” value was -0.0115.
With “HMSPSDLSAEAQKVYALLDGRELSFDTLVEESGFDTGSLLAILMRLEMKMLVEHGADQVYRRSG” the “soluble fraction (log2)” value was -0.58.
With “HMSPVKAPLPGVVLDIHVSVGQEVKASDTVVTLEAMKMENAIKAGVDGKVASISVGKGDSVLEGAVLLTI” the “soluble fraction (log2)” value was 0.0738.
In the case of “HMSQAVTMLKAGRLLANSKGTGAAVRDLEPGMLLYPTGQKDGTMWEVEDEMGNKGWVNSTSMQLA”, the “soluble fraction (log2)” value is reported as 0.188.
For “HMSQDEKITNYIYEGNKNTQTEAFVEAEKSYRKALSLSPEKPEALYNLGNTHFLDKQYDEASQRFF”, the “soluble fraction (log2)” value was 0.0647.
In the case of “HMSQDINVFIKTNPENATIIWDGESKGTNGIFKSNAGAHRLRIEMQGYESIDQDIQVSDKQFSFEYNLKKE”, the “soluble fraction (log2)” value is reported as 0.152.
In the case of “HMSQIANLLLSKNIKVNNQNIIYYETVLKYLPNNEKKEFFINAMKNNIYFTEEEIKNFGNIFN”, the “soluble fraction (log2)” value is reported as -1.66.
In the case of “HMSQIQIKLDQAIMQLPEKQRFVFMLRYFEELPYEKIAQITETSIGGAKANFHQALKKMQEIIQ”, the “soluble fraction (log2)” value is reported as -2.96.
With “HMSQKVQEDFLGDIRKNEIAVTVFLINGVKLQGVITWFDDASILLRRDGHTQLIYKHAVSTIMPGVAVDI” the “soluble fraction (log2)” value was -0.118.
For “HMSQLYINATDDGWVIGNLPADAREVLLTTLGGQVVARYHVTAPSLRVKAPRKGVYIVSVETA”, the “soluble fraction (log2)” value was -1.12.
For “HMSQQVVTDGVNLRLRYAPSPDAETYKWADGTNRHPEKGERFPYLGDIGDFYRIDYKGLVLYVSKQHTHL”, the “soluble fraction (log2)” value was -1.85.
For “HMSQRITYTEFVQMVKDDKVEKVEVGANQYNITPKSDDKTLVKMTYYTGFIKDENLLDLLNKHKVEIDGYI”, the “soluble fraction (log2)” value was 0.157.
In the case of “HMSQSIGQEKALSIALADAGVQKENALGLEVKGEYDDGQLLYEVEFRAGGVEYEYEVRASDGRIVKAERD”, the “soluble fraction (log2)” value is reported as 0.13.
For “HMSQSMEVLYTDLTDKDAAAIVEKLEEEKIPYQLEDQGTTILVPPGVKYTTRLKLAAEDLPKG”, the “soluble fraction (log2)” value was 0.000352.
In the case of “HMSQYVPDPVLNAALVGYLDFRKQAGKPMTDYSIRLLLVDLAKLSGNPQEQAAILDQSTKNNWIGVYALG”, the “soluble fraction (log2)” value is reported as -2.87.
For “HMSRAARLALDALPDEWAQFAESRGLAGSAMAETWETFRDYWQAQPGQKGVKADWAATWRNWVRRETQNRG”, the “soluble fraction (log2)” value was -0.167.
With “HMSRDYKTELQERLQVNGPVKIEYQVIAEDESKPSFKVQLLVNDKKISEGQGRNKKAAEQQAAQAAL” the “soluble fraction (log2)” value was 0.0625.
With “HMSREEFLTELRKALQGRVSQQTVNDNLRYYEEYILTESHKGKTEAEVIAELGNPRLLAKSIIDAENAT” the “soluble fraction (log2)” value was 0.107.
With “HMSRESNISTGRQLLEAQLPTWGYKKVEDIPSKQMKTALDAFNYKDVESLLQGLGEGSVALTTALRRLMP” the “soluble fraction (log2)” value was 0.313.
In the case of “HMSRFLEGILQRRAGGKNYFVPDDGSNPIFIADRNSAGAANGDRVRIAQFARRPRSGPEGEVVEILKRAK”, the “soluble fraction (log2)” value is reported as -0.00665.
With “HMSRGAIVTGTVIEKNQSGIYVDLGYKSDGIVPIEEFDGEESKYNVGDQIRVYVKKVDDGHGQLML” the “soluble fraction (log2)” value was 0.126.
With “HMSRGTRIDPNWQPSPEDRALARAEGFSDPEIDREALQFRDYWLGASGSNAVKLDWSATWRNWVRRAATNF” the “soluble fraction (log2)” value was 0.0774.
With “HMSRKERERSQHRRDILAAGEKIFAQKGYFNATIEEIAREAEFSVGTIYNFFSNKETLYQEIIRSI” the “soluble fraction (log2)” value was -0.298.
In the case of “HMSRLQDAELQAQIDKMAGAMQLRDIPVYVQDIPTINGLAAPDGRVFITQGFIDKYKLGEVSAGEIASVI”, the “soluble fraction (log2)” value is reported as 0.36.
In the case of “HMSRPLISNMLRLLNLPPTVQRKVAAGVISAGHARALLGLNDEKEIEKLANRIVAEGLSVRATEEIVAIA”, the “soluble fraction (log2)” value is reported as -0.937.
With “HMSRWHEFLNKSEDGMKELDEQNQKVLTLLILQRFYQTPFQAKEDEEFYREFFERLSSVNEILG” the “soluble fraction (log2)” value was 0.0126.
In the case of “HMSSAYLTVRGIDIDVIYKDIKNLHIAVYPPFGRVRVAAPSHLDDDQVRLAVIQRLTWIKRQRERLRST”, the “soluble fraction (log2)” value is reported as -1.41.
In the case of “HMSSDEAEYKLLLGQEGVAKSPLRPSGVVDFSGRRLDVQTLGDFIESGETVVVKQVNGHRVLVERK”, the “soluble fraction (log2)” value is reported as 0.158.
For “HMSSDEEQLATLTRLLQKQEQIIQTLGPRNPMVSLQQYANTITKVIEMAGFKDTSQFINSQIP”, the “soluble fraction (log2)” value was -0.0471.
With “HMSSDLESVIGTHSQEANFALRSWGWIQPDETWKNLRPDQVSQILERANEFMAKAIESFANAQSE” the “soluble fraction (log2)” value was -0.14.
With “HMSSDLLGVRVRRARARAGLTRRRLSLLSGVSERFLAQLESGQGNISIVLIRRVAAALGAELVELIGS” the “soluble fraction (log2)” value was -0.74.
In the case of “HMSSEDTQSRDRARKELSNEMSRIMKRYGLDYQPRDNADDIMNRLKAAGADENTLAYVQEKLK”, the “soluble fraction (log2)” value is reported as 0.134.
With “HMSSEITYDKFIEMVDKDQVKEVTLQSGVLTVVPKIQKSYYQNASYKVNQMEDVDALTKRLEGTGIVFHY” the “soluble fraction (log2)” value was -0.0487.
With “HMSSEITYDKFIEMVEEGNVKEVTLQSDTLTIKPKHQDSAFSEKEYYTRQMESADQLTERLEGTGIEFHS” the “soluble fraction (log2)” value was 0.104.
For “HMSSEQRSVLFPNLAETDKVAVIEALMAAGVNARVDSASGRVTVPSGDYYNSRAILAAQGLPTS”, the “soluble fraction (log2)” value was 0.0696.
For “HMSSETTVPAVVGIKEDKARQLASEQGLRLRVKSREESADVEEGIIISQDPNSNTKVKKGDEIEVVVS”, the “soluble fraction (log2)” value was 0.254.
With “HMSSFSESFHKALNNLDDKHKSVFSLRHFEGFSMKEIAETLNINEGTVKSRLFYATKTLAGALKEF” the “soluble fraction (log2)” value was -2.74.
In the case of “HMSSGKTGTITLQPKQTVYGITKQYKISEADLRKLNPQLDSNLKIGDKITLPLDNIQRYSDSSSNVAQT”, the “soluble fraction (log2)” value is reported as 0.211.
With “HMSSGLLTVQEQRILEHLANGERNGDIAGRLHISEGTVKWHLHNMYRKLDAATRTQAVARARALRL” the “soluble fraction (log2)” value was -0.109.
In the case of “HMSSIGERISDVRKARGYTQDQLAERIHVSRQTISHWENERALPDFESIKQLSQVLGYDFSS”, the “soluble fraction (log2)” value is reported as -0.00328.
For “HMSSIHQDAKQQLHEYIRTYIQPLMRAGKQVTVWDIIGHVTIRKPKLVQKIGTQQLINMVQDLLE”, the “soluble fraction (log2)” value was -0.213.
With “HMSSKSDQLYLQLRRRISAMKDGEPFPTVRQLMTEYQVSQSTVTPAINQLKEKGLIEAYVGRGSFVSKK” the “soluble fraction (log2)” value was -0.615.
For “HMSSKTKVEDLGLSTRTLNALIGGSIKTAGGLTRKSESDLLSLDGLGEKGITEIKEALENIGLSLK”, the “soluble fraction (log2)” value was 0.215.
